Data as given in US20230056821A1.
One block for each substance: values may come before it.

Legend:
[1] = biological target: VEGF-A121 (UniProt P15692); assay: SPR, Biacore T200
[2] = biological target: T1, PlGF (UniProt P49763); assay: SPR, Biacore T200
T1 sequence (looked up): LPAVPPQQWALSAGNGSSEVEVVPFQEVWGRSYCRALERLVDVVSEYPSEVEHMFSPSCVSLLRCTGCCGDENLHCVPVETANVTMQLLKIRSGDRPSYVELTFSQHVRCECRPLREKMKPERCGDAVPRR

[3] = biological target: VEGF-A165 (human) (UniProt P15692); assay: SPR, Biacore T200
[4] = biological target: VEGF-A165 (human) (UniProt P15692); assay: cell-based or functional assay
[5] = biological target: C4b (human) (UniProt P0C0L4); assay: SPR, Biacore T200
Chain of C4b (human) (P0C0L4 20-1744): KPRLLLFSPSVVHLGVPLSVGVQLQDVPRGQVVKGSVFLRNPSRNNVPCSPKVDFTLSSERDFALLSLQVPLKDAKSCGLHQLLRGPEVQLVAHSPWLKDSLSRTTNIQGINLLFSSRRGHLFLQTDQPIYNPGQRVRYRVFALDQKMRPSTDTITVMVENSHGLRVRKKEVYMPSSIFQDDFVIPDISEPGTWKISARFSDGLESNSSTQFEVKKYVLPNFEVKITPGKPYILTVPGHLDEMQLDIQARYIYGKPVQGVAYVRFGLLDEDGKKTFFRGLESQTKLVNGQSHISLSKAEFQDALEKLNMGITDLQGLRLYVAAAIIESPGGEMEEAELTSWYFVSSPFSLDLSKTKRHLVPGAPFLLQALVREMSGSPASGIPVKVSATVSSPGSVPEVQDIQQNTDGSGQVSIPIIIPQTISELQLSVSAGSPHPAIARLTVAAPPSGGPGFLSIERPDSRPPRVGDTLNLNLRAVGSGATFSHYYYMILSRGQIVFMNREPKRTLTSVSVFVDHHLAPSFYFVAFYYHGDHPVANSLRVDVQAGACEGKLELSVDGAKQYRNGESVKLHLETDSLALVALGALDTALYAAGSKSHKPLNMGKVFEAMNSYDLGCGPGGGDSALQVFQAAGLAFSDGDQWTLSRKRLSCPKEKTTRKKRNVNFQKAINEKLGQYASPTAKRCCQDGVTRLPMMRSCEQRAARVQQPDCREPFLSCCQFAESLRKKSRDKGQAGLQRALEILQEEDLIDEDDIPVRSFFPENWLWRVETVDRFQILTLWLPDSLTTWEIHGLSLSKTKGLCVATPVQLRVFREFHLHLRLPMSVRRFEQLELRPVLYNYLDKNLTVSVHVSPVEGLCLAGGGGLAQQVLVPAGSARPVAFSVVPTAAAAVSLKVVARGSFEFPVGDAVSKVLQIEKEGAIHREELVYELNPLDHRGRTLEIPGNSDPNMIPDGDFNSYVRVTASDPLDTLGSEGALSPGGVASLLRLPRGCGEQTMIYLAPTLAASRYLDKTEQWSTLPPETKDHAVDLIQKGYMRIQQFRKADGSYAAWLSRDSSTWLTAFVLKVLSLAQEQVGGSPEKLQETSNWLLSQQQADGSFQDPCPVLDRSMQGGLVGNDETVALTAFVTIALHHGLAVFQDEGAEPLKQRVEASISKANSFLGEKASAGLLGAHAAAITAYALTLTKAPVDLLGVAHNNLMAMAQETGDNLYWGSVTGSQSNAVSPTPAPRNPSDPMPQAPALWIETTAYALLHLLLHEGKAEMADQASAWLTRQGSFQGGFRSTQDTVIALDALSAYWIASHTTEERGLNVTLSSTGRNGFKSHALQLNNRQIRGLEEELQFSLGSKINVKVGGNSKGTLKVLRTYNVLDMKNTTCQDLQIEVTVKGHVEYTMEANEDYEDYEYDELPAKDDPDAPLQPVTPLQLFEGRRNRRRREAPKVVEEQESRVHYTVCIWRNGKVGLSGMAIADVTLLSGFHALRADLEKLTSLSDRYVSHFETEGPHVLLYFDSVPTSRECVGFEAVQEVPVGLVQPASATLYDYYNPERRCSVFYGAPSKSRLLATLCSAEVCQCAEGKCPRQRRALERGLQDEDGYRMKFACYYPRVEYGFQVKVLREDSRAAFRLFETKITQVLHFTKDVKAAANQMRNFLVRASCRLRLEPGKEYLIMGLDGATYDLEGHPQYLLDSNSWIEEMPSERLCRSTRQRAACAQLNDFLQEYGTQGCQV

[6] = biological target: C3b (UniProt P01024); assay: SPR, Biacore T200
[7] = biological target: C4b (human) (UniProt P0C0L4); assay: cell-based or functional assay
[8] = biological target: C3b (UniProt P01024); assay: cell-based or functional assay

Chain of VEGF-A121 (P15692 other isoform, or with tags, fused parts or gaps limits assumed): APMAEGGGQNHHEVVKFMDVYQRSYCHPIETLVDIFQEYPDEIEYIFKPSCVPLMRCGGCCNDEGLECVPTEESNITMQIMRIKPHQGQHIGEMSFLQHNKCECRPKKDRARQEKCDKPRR
Chain of Aflibercept injection (Fc fusion) (chain): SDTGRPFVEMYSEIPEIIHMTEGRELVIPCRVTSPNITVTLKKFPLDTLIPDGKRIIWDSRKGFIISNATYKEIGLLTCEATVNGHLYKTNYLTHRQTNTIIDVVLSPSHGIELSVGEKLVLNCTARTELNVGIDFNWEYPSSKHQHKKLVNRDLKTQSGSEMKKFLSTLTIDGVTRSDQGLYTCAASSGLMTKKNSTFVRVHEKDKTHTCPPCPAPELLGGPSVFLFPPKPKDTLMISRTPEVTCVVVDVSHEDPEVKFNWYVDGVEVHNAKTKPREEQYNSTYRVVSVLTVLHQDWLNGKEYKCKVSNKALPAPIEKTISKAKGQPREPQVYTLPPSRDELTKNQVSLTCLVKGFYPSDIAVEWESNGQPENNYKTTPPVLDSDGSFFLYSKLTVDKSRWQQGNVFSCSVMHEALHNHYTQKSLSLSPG
Chain of VEGF-A165 (human) (P15692 other isoform, or with tags, fused parts or gaps limits assumed): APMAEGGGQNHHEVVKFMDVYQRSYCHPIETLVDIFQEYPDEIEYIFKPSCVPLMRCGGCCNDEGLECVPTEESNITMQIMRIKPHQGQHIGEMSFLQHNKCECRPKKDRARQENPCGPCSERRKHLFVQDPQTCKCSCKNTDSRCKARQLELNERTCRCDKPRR

Kd [1]: 0.00778 nM | koff [1]: 4.25e-05 s⁻¹ | kon [1]: 5.46e+06 M⁻¹ s⁻¹ | Kd [2]: 1.16 nM | koff [2]: 0.00384 s⁻¹ | kon [2]: 3.32e+06 M⁻¹ s⁻¹ | Kd [3]: 0.00387 nM | koff [3]: 7.93e-05 s⁻¹ | kon [3]: 2.05e+07 M⁻¹ s⁻¹ | EC50 (ng/mL), inhibition of VEGF-A-induced HUVEC proliferation (CCK-8) [4]: 41 ng/mL | EC50, inhibition of VEGF-A-induced HUVEC proliferation (CCK-8) [4]: 0.357 nM
Substance: Aflibercept injection (Fc fusion)

Kd [5]: 17.1 nM | koff [5]: 0.000805 s⁻¹ | kon [5]: 47000 M⁻¹ s⁻¹ | Kd [6]: 0.35 nM | koff [6]: 0.0011 s⁻¹ | kon [6]: 3.16e+06 M⁻¹ s⁻¹
Substance: Human complement receptor type 1 (from UniProt P17927 42-1971)

Kd [5]: 7.75 nM | koff [5]: 0.00335 s⁻¹ | kon [5]: 432000 M⁻¹ s⁻¹ | Kd [6]: 9.96 nM | koff [6]: 0.00287 s⁻¹ | kon [6]: 288000 M⁻¹ s⁻¹
Substance: IBI302 (Fc fusion)
EC50, inhibition of hemolysis of rabbit red blood cells induced by human serum complement (alternative pathway) [7]: 14.6 nM | EC50, inhibition of hemolysis of sensitized sheep red blood cells induced by human serum complement (classical pathway) [7]: 2.51 nM | EC50, inhibition of hemolysis of rabbit red blood cells induced by human serum complement (alternative pathway) [8]: 14.6 nM | EC50, inhibition of hemolysis of sensitized sheep red blood cells induced by human serum complement (classical pathway) [8]: 2.51 nM
